In one assay the target is T1, recombinant human FAP (human, UniProt Q12884 26-760).
T1 construct: exact construct not described; also called FAP ECD; not shown: The histidine tag (and any linker to it) implied by capture on an anti-histidine antibody
As to the kind of experiment: SPR, huFAP captured (anti-His), Ab analyte. As for the experimental part: Around 12000 resonance units (RU) of the capturing system (15 μg/ml anti-histidine antibody; Order Code: 28995056; GE Healthcare Bio-Sciences AB, Sweden) were coupled on a CMS chip (GE Healthcare BR-1005-30) at pH 4.5 by using an amine coupling kit supplied by the GE Healthcare. Running buffer for Immobilization was HBS-N pH 7.4 (10 mM HEPES, 150 mM NaCl, pH 7.4, GE Healthcare). For the following kinetic characterization running buffer was PBS-P pH 7.4 (20 mM phosphate buffer, 2.7 mM KCl, 137 mM NaCl, 0.05% surfactant P20). The flow cell was set to 25° C.—and the sample block set to 12° C.—and primed with running buffer twice. […] The dissociation phase was monitored for up to 720 s and triggered by switching from the sample solution to running buffer. The surface was regenerated by washing with 10 mM Glycine pH 1.5 for 60 s at a flow rate of 30 μl/min. Bulk refractive index differences were corrected by subtracting the response obtained from an anti-histidine surface. Blank injections are also subtracted (=double referencing). For calculation of KD and kinetic parameters the Langmuir 1:1 model was used.
(Surface plasmon resonance follows binding to a sensor surface in real time, without labels.)

Assay [1] addresses T2, recombinant human CD40_ECD (human, UniProt P25942 21-193).
T2 construct: also called human CD40 extra cellular domain
The assay can be described thus: SPR Biacore T200, huCD40 ECD analyte, apparent KD. As for the experimental part: The capacity of the bispecific constructs to bind human CD40 was assessed by surface plasmon resonance (SPR). […] Bulk refractive index differences were corrected by subtracting the response obtained from a goat anti human F(ab′)2 surface. Blank injections are also subtracted (=double referencing). For calculation of apparent KD and other kinetic parameters the Langmuir 1:1 model was used. The apparent Kd was calculated using the Biacore™ B4000 evaluation software (version 1.1).

Assay [2] has as its target T3, human 4-1BB on Jurkat-hu4-1BB-NFκB-luc2 reporter cells (human, UniProt Q07011 24-255). As to the kind of experiment: cell-based or functional assay.
For assay [3], the target named is T3, human 4-1BB on Jurkat-hu4-1BB-NFκB-luc2 …. As to the kind of experiment: cell-based or functional assay. This is another data set of the same source.

One may read the koff as the first-order rate constant of dissociation. The kon is the rate constant with which the complex forms.

T3 sequence (Q07011 24-255 limits assumed): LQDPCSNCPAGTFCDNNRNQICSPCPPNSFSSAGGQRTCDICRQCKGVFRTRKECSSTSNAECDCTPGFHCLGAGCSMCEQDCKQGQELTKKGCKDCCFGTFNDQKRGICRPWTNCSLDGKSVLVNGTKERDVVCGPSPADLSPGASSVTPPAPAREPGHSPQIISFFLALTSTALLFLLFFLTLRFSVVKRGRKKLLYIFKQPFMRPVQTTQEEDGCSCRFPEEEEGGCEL

B1: FAP (4B9)-CD40 Contorsbody P1AE2052 (bispecific antibody, IgG1)
chain 1: not shown
chain 2: DIQMTQSPSSLSASVGDRVTITCRSSQSLVHSNGNTFLHWYQQKPGKAPKLLIYTVSNRFSGVPSRFSGSGSGTDFTLTISSLQPEDFATYFCSQTTHVPWTFGGGTKVEIKRTVAAPSVFIFPPSDEQLKSGTASVVCLLNNFYPREAKVQWKVDNALQSGNSQESVTEQDSKDSTYSLSSTLTLSKADYEKHKVYACEVTHQGLSSPVTKSFNRGECGGGGSGGGGSDKTHTCPPCPAPEAAGGPSVFLFPPKPKDTLMISRTPEVTCVVVDVSHEDPEVKFNWYVDGVEVHNAKTKPREEQYNSTYRVVSVLTVLHQDWLNGKEYKCKVSNKALGAPIEKTISKAKGQPREPQVCTLPPSRDELTKNQVSLSCAVKGFYPSDIAVEWESNGQPENNYKTTPPVLDSDGSFFLVSKLTVDKSRWQQGNVFSCSVMHEALHNHYTQKSLSLSPGKGGGGSGGGGSEVQLLESGGGLVQPGGSLRLSCAASGYSFTGYYIHWVRQAPGKGLEWVGRVIPNAGGTSYNQKFKGRFTISVDNSKNTAYLQMNSLRAEDTAVYYCAREGIYWWGQGTTVTVSSASTKGPSVFPLAPSSKSTSGGTAALGCLVKDYFPEPVTVSWNSGALTSGVHTFPAVLQSSGLYSLSSVVTVPSSSLGTQTYICNVNHKPSNTKVDKKVEPKSCGGGGSGGGGSGGGSGGGGSEIVLTQSPGTLSLSPGERATLSCRASQSVTSSYLAWYQQKPGQAPRLLINVGSRRATGIPDRFSGSGSGTDFTLTISRLEPEDFAVYYCQQGIMLPPTFGQGTKVEIKSSASTKGPSVFPLAPSSKSTSGGTAALGCLVKDYFPEPVTVSWNSGALTSGVHTFPAVLQSSGLYSLSSVVTVPSSSLGTQTYICNVNHKPSNTKVDKKVEPKSC
notes: 2+1 contorsbody; IgG1 Fc knob/hole, P329G LALA
Consider B1, for which, in the assay with recombinant human FAP, the Kd amounted to 8.31 nM, the koff was 0.000296 s⁻¹, the kon is 35600 M⁻¹ s⁻¹ and the “t 1/2” value was 2340 s. For the same molecule, in assay [1], the Kd amounted to 7.2 nM, the koff is 0.00681 s⁻¹, the kon came out at 945000 M⁻¹ s⁻¹ and the “t 1/2” value came to 102 s.

B2: anti-4-1BB (20H4.9) huIgG1 P329GLALA antibody (antibody, V domains shown)
VH: QVQLQQWGAGLLKPSETLSLTCAVYGGSFSGYYWSWIRQSPEKGLEWIGEINHGGYVTYNPSLESRVTISVDTSKNQFSLKLSSVTAADTAVYYCARDYGPGNYDWYFDLWGRGTLVTVSS
VL: EIVLTQSPATLSLSPGERATLSCRASQSVSSYLAWYQQKPGQAPRLLIYDASNRATGIPARFSGSGSGTDFTLTISSLEPEDFAVYYCQQRSNWPPALTFGGGTKVEIK
With B2, in assay [2], the “EC50 of NFκB-luciferase activation in Jurkat-hu4-1BB-NFκB-luc2 cells with NIH/3T3-huFAP clone 19” value was 0.321 nM. In addition, in assay [3], the “area under the curve (AUC) of NFκB-luciferase activation in Jurkat-hu4-1BB-NFκB-luc2 cells with NIH/3T3-huFAP clone 19” value was 15500.

B3: anti-4-1BB (20H4.9) huIgG4 (antibody, V domains shown)
VH: B2 VH
VL: B2 VL
With B3, in assay [2], the “EC50 of NFκB-luciferase activation in Jurkat-hu4-1BB-NFκB-luc2 cells with NIH/3T3-huFAP clone 19” value was determined as 0.701 nM. For the same molecule, the “area under the curve (AUC) of NFκB-luciferase activation in Jurkat-hu4-1BB-NFκB-luc2 cells with NIH/3T3-huFAP clone 19” value in assay [3] came to 13000.

For the origin of these results see patent US20210324108A1 (Hoffmann-La Roche, published 2021).
